According to article doi:10.1101/2021.11.20.466133 (bioRxiv, 2021):

Target: the molecule itself
Test: SEC-MALS

B1: Mycobacterium smegmatis c-di-AMP hydrolase (phosphodiesterase) MsPDE (enzyme)
chain: MPVTTTDPKTGLLTGPDAQIAGARVDARGAADLLTAASSVSVICHVYPDADTIGAGLALAQVLAASGKHVEVSFATPAQLPESLQSLPGGHLLVAPEAMRRDADLVVTVDIPSINRLGALSGLAGPGREVLVIDHHASNQLFGTANYIDPSADSTTMLVAELLDAWGKPIDEKVAHCLYAGLTTDTGSFRWATARAHRLAARLVELGVDNASISRTLLDTHPFAWLPMLSRVLATARLLPDALDGRGFVYAVVPHDEWSEARPEEVESIVDIVRTTQQAEVAAVFKEIEPMHWSVSMRAKSVNLASVASAFGGGGHPHAAGYSATGSADDVVQALARALG
stoichiometry N: 2
